In the supplement of paper PMC6755084:

B1: F1*; the commonest letter at each place (parent)
chain: GAGACCGCAACTGAAAAGTTGTTATCACTTGTCGTAAGACACTTTGGATGGGTTGAAGTTCTGCACGTAGAAGCAAAAGGC

Variants of: B1
Assay: fraction ligated after 30 min (ligated reads / total reads); higher = more ligase activity
Conditions: with F1*sub RNA substrate (template-directed ligation), 42 °C
In short: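 Ribozyme variants were transcribed with T7 from PCR-amplified oligo-pool templates and gel-purified. Ligated and unligated bands, separated on gel, were reverse transcribed with barcoded primers and sequenced on a MiSeq, with core bases filtered at quality ≥20. Fraction ligated per variant was computed as ligated reads divided by total reads.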

Compared with C33A T43G, C33A T43A is higher in fraction ligated: 0.799 for the first, 0.83 for the second.

Going from G34A C42G to G34A C42A, the fraction ligated falls from 0.85 to 0.839.

First: G34A C42T
Second: C33G A56T
The fraction ligated of the first is lower: 0.865 for the first, 0.867 for the second.

First: C33G A56C
Second: C33G A56G
The fraction ligated of the first is higher: 0.837 for the first, 0.793 for the second.

First: C33T T35G
Second: C33T T35A
The fraction ligated of the first is lower: 0.854 for the first, 0.879 for the second.

Going from C33T T35C to C33A G50C, the fraction ligated falls from 0.869 to 0.0908.

Going from C33A G50A to C33A G50T, the fraction ligated rises from 0.343 to 0.627.

First: T32G C40A
Second: T32G C40T
The fraction ligated of the first is lower: 0.825 for the first, 0.836 for the second.

First: T32G C40G
Second: C33A G55T
The fraction ligated of the first is higher: 0.813 for the first, 0.809 for the second.

Going from C33A G55C to C33A G55A, the fraction ligated rises from 0.77 to 0.84.

Compared with C33A C42G, C33A C42T is higher in fraction ligated: 0.84 for the first, 0.872 for the second.

Going from C33A C42A to G34C A48G, the fraction ligated falls from 0.879 to 0.753.

Compared with G34C A48C, G34C A48T is higher in fraction ligated: 0.756 for the first, 0.781 for the second.

First: T32G T49C
Second: T32G T49A
The fraction ligated of the first is lower: 0.246 for the first, 0.56 for the second.

Going from T32G T49G to G34A G46A, the fraction ligated rises from 0.669 to 0.807.

First: G34A G46T
Second: G34A G46C
The fraction ligated of the first is lower: 0.778 for the first, 0.798 for the second.

First: C33G T49C
Second: C33G T49A
The fraction ligated of the first is lower: 0.312 for the first, 0.596 for the second.

Going from C33G T49G to C33A G47A, the fraction ligated rises from 0.706 to 0.745.

Compared with C33A G47C, C33A G47T is higher in fraction ligated: 0.109 for the first, 0.219 for the second.

Going from T32G C42T to T32G C42G, the fraction ligated falls from 0.846 to 0.837.

First: T32G C42A
Second: C33G T43A
The fraction ligated of the first is higher: 0.845 for the first, 0.814 for the second.

First: C33G T43C
Second: C33G T43G
The fraction ligated of the first is higher: 0.812 for the first, 0.807 for the second.

First: C33G A37G
Second: C33G A37C
The fraction ligated of the first is higher: 0.847 for the first, 0.824 for the second.

Compared with C33G A37T, C33G A41C is lower in fraction ligated: 0.853 for the first, 0.822 for the second.

First: C33G A41G
Second: C33G A41T
The fraction ligated of the first is higher: 0.791 for the first, 0.789 for the second.

Going from G34A C40T to G34A C40G, the fraction ligated rises from 0.81 to 0.833.

Going from G34A C40A to C33G G47T, the fraction ligated falls from 0.817 to 0.409.

Going from C33G G47A to C33G G47C, the fraction ligated falls from 0.791 to 0.108.

First: G34A G55T
Second: G34A G55A
The fraction ligated of the first is lower: 0.811 for the first, 0.84 for the second.

First: G34A G55C
Second: C33T G55T
The fraction ligated of the first is lower: 0.801 for the first, 0.839 for the second.

Going from C33T G55A to C33T G55C, the fraction ligated falls from 0.859 to 0.82.

Going from G34A A36G to G34A A36T, the fraction ligated falls from 0.846 to 0.843.

Going from G34A A36C to G34C G46C, the fraction ligated falls from 0.83 to 0.757.

Going from G34C G46T to G34C G46A, the fraction ligated rises from 0.762 to 0.789.

First: G34C G47T
Second: G34C G47C
The fraction ligated of the first is lower: 0.352 for the first, 0.365 for the second.

Going from G34C G47A to T32G T35G, the fraction ligated rises from 0.774 to 0.831.

Compared with T32G T35A, T32G T35C is lower in fraction ligated: 0.814 for the first, 0.802 for the second.

First: T32G C33A
Second: T32G C33T
The fraction ligated of the first is lower: 0.843 for the first, 0.856 for the second.

First: T32G C33G
Second: C33G G50C
The fraction ligated of the first is higher: 0.828 for the first, 0.114 for the second.

Going from C33G G50A to C33G G50T, the fraction ligated rises from 0.253 to 0.545.

First: C33A G46T
Second: C33A G46C
The fraction ligated of the first is higher: 0.803 for the first, 0.797 for the second.

Compared with C33A G46A, C33G C40T is lower in fraction ligated: 0.84 for the first, 0.825 for the second.

First: C33G C40A
Second: C33G C40G
The fraction ligated of the first is lower: 0.819 for the first, 0.826 for the second.

First: C33T A41T
Second: C33T A41C
The fraction ligated of the first is higher: 0.808 for the first, 0.789 for the second.

First: C33T A41G
Second: G34A G47T
The fraction ligated of the first is higher: 0.8 for the first, 0.373 for the second.

Compared with G34A G47C, G34A G47A is higher in fraction ligated: 0.239 for the first, 0.805 for the second.

First: C33G T44G
Second: C33G T44A
The fraction ligated of the first is lower: 0.808 for the first, 0.812 for the second.

Compared with C33G T44C, C33A G34C is higher in fraction ligated: 0.804 for the first, 0.805 for the second.

Compared with C33A G34T, C33A G34A is lower in fraction ligated: 0.843 for the first, 0.834 for the second.

Compared with T32G G38A, T32G G38C is lower in fraction ligated: 0.822 for the first, 0.798 for the second.

First: T32G G38T
Second: C33T G34C
The fraction ligated of the first is lower: 0.799 for the first, 0.831 for the second.

First: C33T G34A
Second: C33T G34T
The fraction ligated of the first is higher: 0.855 for the first, 0.853 for the second.

First: C33T G46A
Second: C33T G46C
The fraction ligated of the first is higher: 0.831 for the first, 0.807 for the second.

First: C33T G46T
Second: G34C A41C
The fraction ligated of the first is lower: 0.791 for the first, 0.808 for the second.

Going from G34C A41G to G34C A41T, the fraction ligated rises from 0.758 to 0.778.

First: C33T T43C
Second: C33T T43A
The fraction ligated of the first is lower: 0.822 for the first, 0.831 for the second.

Compared with C33T T43G, T32G A57T is higher in fraction ligated: 0.78 for the first, 0.814 for the second.

First: T32G A57C
Second: T32G A57G
The fraction ligated of the first is lower: 0.82 for the first, 0.844 for the second.

First: C33T C42A
Second: C33T C42T
The fraction ligated of the first is lower: 0.842 for the first, 0.86 for the second.

Going from C33T C42G to C33T G50C, the fraction ligated falls from 0.857 to 0.324.

Going from C33T G50A to C33T G50T, the fraction ligated rises from 0.603 to 0.804.

Going from C33T C40T to C33T C40A, the fraction ligated rises from 0.859 to 0.875.

Compared with C33T C40G, C33T A39C is lower in fraction ligated: 0.877 for the first, 0.804 for the second.

First: C33T A39G
Second: C33T A39T
The fraction ligated of the first is higher: 0.833 for the first, 0.831 for the second.

First: C33G A39T
Second: C33G A39G
The fraction ligated of the first is higher: 0.851 for the first, 0.836 for the second.

Compared with C33G A39C, C33A C40T is higher in fraction ligated: 0.833 for the first, 0.849 for the second.

Going from C33A C40A to C33A C40G, the fraction ligated falls from 0.853 to 0.849.

Compared with G34A G50C, G34A G50T is higher in fraction ligated: 0.43 for the first, 0.778 for the second.

Compared with G34A G50A, T32G G47T is lower in fraction ligated: 0.625 for the first, 0.0926 for the second.

First: T32G G47A
Second: T32G G47C
The fraction ligated of the first is higher: 0.556 for the first, 0.0306 for the second.

Compared with T32G G46A, T32G G46C is lower in fraction ligated: 0.782 for the first, 0.716 for the second.

Going from T32G G46T to G34C A56T, the fraction ligated rises from 0.647 to 0.812.

Going from G34C A56C to G34C A56G, the fraction ligated rises from 0.779 to 0.794.

Going from G34A T35A to G34A T35C, the fraction ligated falls from 0.848 to 0.835.

Compared with G34A T35G, T32G G50A is lower in fraction ligated: 0.855 for the first, 0.179 for the second.

First: T32G G50T
Second: T32G G50C
The fraction ligated of the first is higher: 0.384 for the first, 0.0952 for the second.

Going from G34A A56C to G34A A56G, the fraction ligated falls from 0.804 to 0.775.

First: G34A A56T
Second: C33A A37G
The fraction ligated of the first is lower: 0.819 for the first, 0.872 for the second.

First: C33A A37T
Second: C33A A37C
The fraction ligated of the first is lower: 0.849 for the first, 0.859 for the second.

Compared with C33G A36G, C33G A36T is higher in fraction ligated: 0.821 for the first, 0.825 for the second.

Going from C33G A36C to T32G G55A, the fraction ligated rises from 0.796 to 0.803.

Compared with T32G G55C, T32G G55T is higher in fraction ligated: 0.63 for the first, 0.798 for the second.

Going from G34C C42G to G34C C42A, the fraction ligated rises from 0.84 to 0.852.

G34C C42T showed a fraction ligated of 0.849.
